According to US20150374794A1 (Novo Nordisk, published 2015):
Numbered stars: 1 amine (or outer) side, 2 acyl side, 3 side chain; on linkers, the order of the positions; unused ones are H or OH. Square brackets hold non-standard residues; d marks the D form. Side chains are listed from the residue outwards. Ends that are not written are not given here. * marks the point of attachment. C18 diacid = O=C(O)CCCCCCCCCCCCCCCCC(=O)*; γGlu = O=C(O)[C@H](CCC(=O)[*:2])N[*:1]; AEEA = NCCOCCOCC(=O)O; Ac3c = NC1(C(=O)O)CC1; Aib = CC(C)(N)C(=O)O

Assays:
[1] = target: T1, human GLP-1 receptor (human, UniProt P43220 24-463); assay: displacement of 125I-GLP-1(7-36)NH2, membranes with human GLP-1R, SPA
T1 construct: whole, on cells; the potency assay used whole cells (clone FCW467-12A/KZ10-1)
Protocol: (§1) The receptor binding of each compound to the human GLP-1 receptor was measured in a displacement binding assay. […] Each derivative was added in a series of concentrations to isolated membranes containing the human GLP-1 receptor and displacement of the labelled ligand was monitored. The receptor binding was reported as the concentration at which half of the labelled ligand was displaced from the receptor, the IC₅₀ value.

[2] = target: T2, human glucagon receptor (human, UniProt P47871 26-477); assay: displacement of 125I-glucagon, membranes with human glucagon receptor, SPA
T2 construct: whole, on cells; the potency assay used whole cells (clone pLJ6'-4-25); also called GlucR; hGCGR
T2 sequence (P47871 26-477): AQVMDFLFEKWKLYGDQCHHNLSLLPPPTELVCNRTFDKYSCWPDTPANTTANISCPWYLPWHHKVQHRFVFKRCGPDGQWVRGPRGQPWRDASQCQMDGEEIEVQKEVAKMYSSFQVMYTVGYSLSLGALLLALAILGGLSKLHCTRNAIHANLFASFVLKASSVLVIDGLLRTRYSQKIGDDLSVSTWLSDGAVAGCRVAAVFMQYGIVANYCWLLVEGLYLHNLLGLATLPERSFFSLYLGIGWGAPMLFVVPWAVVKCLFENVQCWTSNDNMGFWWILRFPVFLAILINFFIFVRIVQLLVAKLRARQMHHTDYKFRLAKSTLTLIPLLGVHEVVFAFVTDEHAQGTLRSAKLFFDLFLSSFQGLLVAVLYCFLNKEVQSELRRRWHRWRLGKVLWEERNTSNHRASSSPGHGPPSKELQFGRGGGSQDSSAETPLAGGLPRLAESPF
Protocol: as §1, with “human glucagon” for “human GLP-1”, “ligand is” for “ligand was”

[3] = target: T2, human glucagon receptor; assay: cell-based or functional assay
[4] = target: T1, human GLP-1 receptor; assay: cell-based or functional assay

B1: N^ε16-[(4S)-4-carboxy-4-[[(4S)-4-carboxy-4-[[2-[2-[2-[[(4S)-4-carboxy-4-[[(4S)-4-carboxy-4-(17-carboxyheptadecanoylamino)butanoyl]amino]butanoyl]amino]ethoxy]et … (peptide)
peptide: H[Aib]QGTFTSDLSKYLDK([γGlu-γGlu-AEEA-γGlu-γGlu-C18 diacid])RRAQEFVQWLVKG-NH2
modifications: N-terminus assumed
SMILES: CC(C)C[C@H](NC(=O)[C@H](Cc1ccc(O)cc1)NC(=O)[C@H](CCCCN)NC(=O)[C@H](CO)NC(=O)[C@H](CC(C)C)NC(=O)[C@H](CC(=O)O)NC(=O)[C@H](CO)NC(=O)[C@@H](NC(=O)[C@H](Cc1ccccc1)NC(=O)[C@@H](NC(=O)CNC(=O)[C@H](CCC(N)=O)NC(=O)C(C)(C)NC(=O)[C@@H](N)Cc1c[nH]cn1)[C@@H](C)O)[C@@H](C)O)C(=O)N[C@@H](CC(=O)O)C(=O)N[C@@H](CCCCNC(=O)CC[C@H](NC(=O)CC[C@H](NC(=O)COCCOCCNC(=O)CC[C@H](NC(=O)CC[C@H](NC(=O)CCCCCCCCCCCCCCCCC(=O)O)C(=O)O)C(=O)O)C(=O)O)C(=O)O)C(=O)N[C@@H](CCCNC(=N)N)C(=O)N[C@@H](CCCNC(=N)N)C(=O)N[C@@H](C)C(=O)N[C@@H](CCC(N)=O)C(=O)N[C@@H](CCC(=O)O)C(=O)N[C@@H](Cc1ccccc1)C(=O)N[C@H](C(=O)N[C@@H](CCC(N)=O)C(=O)N[C@@H](Cc1c[nH]c2ccccc12)C(=O)N[C@@H](CC(C)C)C(=O)N[C@H](C(=O)N[C@@H](CCCCN)C(=O)NCC(N)=O)C(C)C)C(C)C
- IC50 [1]: 1.6 nM
- IC50 [2]: 148 nM
- EC50 GlucR, CRE luciferase reporter gene assay in BHK cells [3]: 1.33 nM
- EC50 GLP-1R, CRE luciferase reporter gene assay in BHK cells [4]: 0.0295 nM

B2: N^ε28-[(4S)-4-carboxy-4-[[(4S)-4-carboxy-4-[[2-[2-[2-[[2-[2-[2-[[(4S)-4-carboxy-4-(17-carboxyheptadecanoylamino)butanoyl]amino]ethoxy]ethoxy]acetyl]amino]ethoxy … (peptide)
peptide: H[Ac3c]QGTFTSDLSKYLESRRAREFVQWLLK([γGlu-γGlu-AEEA-AEEA-γGlu-C18 diacid])T-NH2
modifications: N-terminus assumed
SMILES: CC(C)C[C@H](NC(=O)[C@H](Cc1ccc(O)cc1)NC(=O)[C@H](CCCCN)NC(=O)[C@H](CO)NC(=O)[C@H](CC(C)C)NC(=O)[C@H](CC(=O)O)NC(=O)[C@H](CO)NC(=O)[C@@H](NC(=O)[C@H](Cc1ccccc1)NC(=O)[C@@H](NC(=O)CNC(=O)[C@H](CCC(N)=O)NC(=O)C1(NC(=O)[C@@H](N)Cc2c[nH]cn2)CC1)[C@@H](C)O)[C@@H](C)O)C(=O)N[C@@H](CCC(=O)O)C(=O)N[C@@H](CO)C(=O)N[C@@H](CCCNC(=N)N)C(=O)N[C@@H](CCCNC(=N)N)C(=O)N[C@@H](C)C(=O)N[C@@H](CCCNC(=N)N)C(=O)N[C@@H](CCC(=O)O)C(=O)N[C@@H](Cc1ccccc1)C(=O)N[C@H](C(=O)N[C@@H](CCC(N)=O)C(=O)N[C@@H](Cc1c[nH]c2ccccc12)C(=O)N[C@@H](CC(C)C)C(=O)N[C@@H](CC(C)C)C(=O)N[C@@H](CCCCNC(=O)CC[C@H](NC(=O)CC[C@H](NC(=O)COCCOCCNC(=O)COCCOCCNC(=O)CC[C@H](NC(=O)CCCCCCCCCCCCCCCCC(=O)O)C(=O)O)C(=O)O)C(=O)O)C(=O)N[C@H](C(N)=O)[C@@H](C)O)C(C)C
- IC50 [1]: 2.2 nM
- IC50 [2]: 26.2 nM
- EC50 GlucR, CRE luciferase reporter gene assay in BHK cells [3]: 0.28 nM
- EC50 GLP-1R, CRE luciferase reporter gene assay in BHK cells [4]: 0.011 nM

B3: N^ε29-[(4S)-4-carboxy-4-[[(4S)-4-carboxy-4-[[2-[2-[2-[[2-[2-[2-[[(4S)-4-carboxy-4-(17-carboxyheptadecanoylamino)butanoyl]amino]ethoxy]ethoxy]acetyl]amino]ethoxy … (peptide)
peptide: H[Aib]QGTFTSDLSKYLDSRRAREFVQWLLNK([γGlu-γGlu-AEEA-AEEA-γGlu-C18 diacid])-NH2
modifications: N-terminus assumed
SMILES: CC(C)C[C@H](NC(=O)[C@H](CC(C)C)NC(=O)[C@H](Cc1c[nH]c2ccccc12)NC(=O)[C@H](CCC(N)=O)NC(=O)[C@@H](NC(=O)[C@H](Cc1ccccc1)NC(=O)[C@H](CCC(=O)O)NC(=O)[C@H](CCCNC(=N)N)NC(=O)[C@H](C)NC(=O)[C@H](CCCNC(=N)N)NC(=O)[C@H](CCCNC(=N)N)NC(=O)[C@H](CO)NC(=O)[C@H](CC(=O)O)NC(=O)[C@H](CC(C)C)NC(=O)[C@H](Cc1ccc(O)cc1)NC(=O)[C@H](CCCCN)NC(=O)[C@H](CO)NC(=O)[C@H](CC(C)C)NC(=O)[C@H](CC(=O)O)NC(=O)[C@H](CO)NC(=O)[C@@H](NC(=O)[C@H](Cc1ccccc1)NC(=O)[C@@H](NC(=O)CNC(=O)[C@H](CCC(N)=O)NC(=O)C(C)(C)NC(=O)[C@@H](N)Cc1c[nH]cn1)[C@@H](C)O)[C@@H](C)O)C(C)C)C(=O)N[C@@H](CC(N)=O)C(=O)N[C@@H](CCCCNC(=O)CC[C@H](NC(=O)CC[C@H](NC(=O)COCCOCCNC(=O)COCCOCCNC(=O)CC[C@H](NC(=O)CCCCCCCCCCCCCCCCC(=O)O)C(=O)O)C(=O)O)C(=O)O)C(N)=O
- IC50 [1]: 0.5 nM
- IC50 [2]: 7 nM
- EC50 GlucR, CRE luciferase reporter gene assay in BHK cells [3]: 0.104 nM
- EC50 GLP-1R, CRE luciferase reporter gene assay in BHK cells [4]: 0.0147 nM

B4: N^ε29-[(4S)-4-carboxy-4-[[(4S)-4-carboxy-4-[[2-[2-[2-[[(4S)-4-carboxy-4-(17-carboxyheptadecanoylamino)butanoyl]amino]ethoxy]ethoxy]acetyl]amino]butanoyl]amino]b … (peptide)
peptide: H[Aib]QGTFTSDLSKYLDARRAREFVQWLLNK([γGlu-γGlu-AEEA-γGlu-C18 diacid])-NH2
modifications: N-terminus assumed
SMILES: CC(C)C[C@H](NC(=O)[C@H](Cc1ccc(O)cc1)NC(=O)[C@H](CCCCN)NC(=O)[C@H](CO)NC(=O)[C@H](CC(C)C)NC(=O)[C@H](CC(=O)O)NC(=O)[C@H](CO)NC(=O)[C@@H](NC(=O)[C@H](Cc1ccccc1)NC(=O)[C@@H](NC(=O)CNC(=O)[C@H](CCC(N)=O)NC(=O)C(C)(C)NC(=O)[C@@H](N)Cc1c[nH]cn1)[C@@H](C)O)[C@@H](C)O)C(=O)N[C@@H](CC(=O)O)C(=O)N[C@@H](C)C(=O)N[C@@H](CCCNC(=N)N)C(=O)N[C@@H](CCCNC(=N)N)C(=O)N[C@@H](C)C(=O)N[C@@H](CCCNC(=N)N)C(=O)N[C@@H](CCC(=O)O)C(=O)N[C@@H](Cc1ccccc1)C(=O)N[C@H](C(=O)N[C@@H](CCC(N)=O)C(=O)N[C@@H](Cc1c[nH]c2ccccc12)C(=O)N[C@@H](CC(C)C)C(=O)N[C@@H](CC(C)C)C(=O)N[C@@H](CC(N)=O)C(=O)N[C@@H](CCCCNC(=O)CC[C@H](NC(=O)CC[C@H](NC(=O)COCCOCCNC(=O)CC[C@H](NC(=O)CCCCCCCCCCCCCCCCC(=O)O)C(=O)O)C(=O)O)C(=O)O)C(N)=O)C(C)C
- IC50 [1]: 0.3 nM
- IC50 [2]: 5.6 nM
- EC50 GlucR, CRE luciferase reporter gene assay in BHK cells [3]: 0.012 nM
- EC50 GLP-1R, CRE luciferase reporter gene assay in BHK cells [4]: 0.004 nM

Binder: H[Aib]QGTFTSDLSKYLESKRAREFVQWLLKT-NH2 (not fully specified)
- IC50 [1]: 0.2 nM
- IC50 [2]: 7.1 nM
- EC50 GlucR, CRE luciferase reporter gene assay in BHK cells [3]: 0.0871 nM
- EC50 GLP-1R, CRE luciferase reporter gene assay in BHK cells [4]: 0.0118 nM

B5: N^ε29-[(4S)-4-carboxy-4-[[(4S)-4-carboxy-4-[[2-[2-[2-[[(4S)-4-carboxy-4-(17-carboxyheptadecanoylamino)butanoyl]amino]ethoxy]ethoxy]acetyl]amino]butanoyl]amino]b … (peptide)
peptide: H[Aib]QGTFTSDLSKYLDLRRAREFVQWLLNK([γGlu-γGlu-AEEA-γGlu-C18 diacid])-NH2
modifications: N-terminus assumed
SMILES: CC(C)C[C@H](NC(=O)[C@H](CC(C)C)NC(=O)[C@H](Cc1c[nH]c2ccccc12)NC(=O)[C@H](CCC(N)=O)NC(=O)[C@@H](NC(=O)[C@H](Cc1ccccc1)NC(=O)[C@H](CCC(=O)O)NC(=O)[C@H](CCCNC(=N)N)NC(=O)[C@H](C)NC(=O)[C@H](CCCNC(=N)N)NC(=O)[C@H](CCCNC(=N)N)NC(=O)[C@H](CC(C)C)NC(=O)[C@H](CC(=O)O)NC(=O)[C@H](CC(C)C)NC(=O)[C@H](Cc1ccc(O)cc1)NC(=O)[C@H](CCCCN)NC(=O)[C@H](CO)NC(=O)[C@H](CC(C)C)NC(=O)[C@H](CC(=O)O)NC(=O)[C@H](CO)NC(=O)[C@@H](NC(=O)[C@H](Cc1ccccc1)NC(=O)[C@@H](NC(=O)CNC(=O)[C@H](CCC(N)=O)NC(=O)C(C)(C)NC(=O)[C@@H](N)Cc1c[nH]cn1)[C@@H](C)O)[C@@H](C)O)C(C)C)C(=O)N[C@@H](CC(N)=O)C(=O)N[C@@H](CCCCNC(=O)CC[C@H](NC(=O)CC[C@H](NC(=O)COCCOCCNC(=O)CC[C@H](NC(=O)CCCCCCCCCCCCCCCCC(=O)O)C(=O)O)C(=O)O)C(=O)O)C(N)=O
- IC50 [1]: 1.2 nM
- IC50 [2]: 29.4 nM
- EC50 GlucR, CRE luciferase reporter gene assay in BHK cells [3]: 0.024 nM
- EC50 GLP-1R, CRE luciferase reporter gene assay in BHK cells [4]: 0.013 nM

Binder: H[Aib]QGTFTSDLSKYLDKRAAREFVAWLLNT-NH2 (not fully specified)
- IC50 [1]: 0.1 nM
- IC50 [2]: 11 nM
- EC50 GlucR, CRE luciferase reporter gene assay in BHK cells [3]: 0.22 nM
- EC50 GLP-1R, CRE luciferase reporter gene assay in BHK cells [4]: 0.0023 nM

B6: N^ε29-[(4S)-4-carboxy-4-[[(4S)-4-carboxy-4-[[2-[2-[2-[[(4S)-4-carboxy-4-(17-carboxyheptadecanoylamino)butanoyl]amino]ethoxy]ethoxy]acetyl]amino]butanoyl]amino]b … (peptide)
peptide: H[Aib]QGTFTSDLSKYLESRRAREFVQWLLNK([γGlu-γGlu-AEEA-γGlu-C18 diacid])-NH2
modifications: N-terminus assumed
SMILES: CC(C)C[C@H](NC(=O)[C@H](CC(C)C)NC(=O)[C@H](Cc1c[nH]c2ccccc12)NC(=O)[C@H](CCC(N)=O)NC(=O)[C@@H](NC(=O)[C@H](Cc1ccccc1)NC(=O)[C@H](CCC(=O)O)NC(=O)[C@H](CCCNC(=N)N)NC(=O)[C@H](C)NC(=O)[C@H](CCCNC(=N)N)NC(=O)[C@H](CCCNC(=N)N)NC(=O)[C@H](CO)NC(=O)[C@H](CCC(=O)O)NC(=O)[C@H](CC(C)C)NC(=O)[C@H](Cc1ccc(O)cc1)NC(=O)[C@H](CCCCN)NC(=O)[C@H](CO)NC(=O)[C@H](CC(C)C)NC(=O)[C@H](CC(=O)O)NC(=O)[C@H](CO)NC(=O)[C@@H](NC(=O)[C@H](Cc1ccccc1)NC(=O)[C@@H](NC(=O)CNC(=O)[C@H](CCC(N)=O)NC(=O)C(C)(C)NC(=O)[C@@H](N)Cc1c[nH]cn1)[C@@H](C)O)[C@@H](C)O)C(C)C)C(=O)N[C@@H](CC(N)=O)C(=O)N[C@@H](CCCCNC(=O)CC[C@H](NC(=O)CC[C@H](NC(=O)COCCOCCNC(=O)CC[C@H](NC(=O)CCCCCCCCCCCCCCCCC(=O)O)C(=O)O)C(=O)O)C(=O)O)C(N)=O
- IC50 [1]: 0.4 nM
- IC50 [2]: 37.7 nM
- EC50 GlucR, CRE luciferase reporter gene assay in BHK cells [3]: 0.136 nM
- EC50 GLP-1R, CRE luciferase reporter gene assay in BHK cells [4]: 0.004 nM
